# Results from US20180258187A1.
# Numbering of substitutions follows the chain as printed.
# B1: LMP2-38 Dimeric BsAb (bispecific antibody, part only)
# VH: QSALTQPASVSGSPGQSITISCTGTSSDVGSYNDVSWYQQHPGKAPKLMIYDVSNRPSGVSNRFSGSKSGNTASLTISGLQTEDEADYYCNSYTSSNTYVFGTGTKVTVLG
# VL: QVQLVQSGAEVKKPGASVQVSCRASGYTITSYYMHWVRQAPGQGLEWMGVINPNAGSTRYAQKFQGRVTMSTDTSTSTVYMALSSLRSDDTAVYYCARGMYRMYDWGQGTLVTVSS
# chain 1: DVQLVQSGAEVKKPGASVKVSCKASGYTFTRYTMHWVRQAPGQGLEWIGYINPSRGYTNYADSVKGRFTITTDKSTSTAYMELSSLRSEDTATYYCARYYDDHYSLDYWGQGTTVTVSSGEGTSTGSGGSGGSGGADDIVLTQSPATLSLSPGERATLSCRASQSVSYMNWYQQKPGKAPKRWIYDTSKVASGVPARFSGSGSGTDYSLTINSLEAEDAATYYCQQWSSNPLTFGGGTKVEIK
# chain 2: RTPLGDTTHTSGMVSKLSQLQTELLAALLESGLSKEALIQALGEGSGGAPHHHHHH
# B2: LMP2-38 IgG1 (antibody, V domains shown)
# VH: B1 VL
# VL: B1 VH
# B3: LMP2-38-11 (antibody, name in Kabat numbering, V domains shown)
# VH: B1 VL with G26E, I51V
# VL: B1 VH
# Columns and labels:
# [1] = biological target: EBV-LMP2 peptide/HLA-A*02:01 complex as naturally presented on HLA-A*02:01+ EBV+ cells (BLCL, tumour cell lines) (human; Epstein-Barr virus); assay: cell-based or functional assay
# [2] = biological target: EBV-LMP2 peptide presented by HLA-A*02:06 on artificial antigen presenting cells (human; Epstein-Barr virus)
# [3] = biological target: P19 peptide (mixture of 19 endogenous control peptides) loaded T2 cell; assay: flow cytometry, phage antibody on peptide loaded T2 cells
binder,measurement,setting,value
B1,"% Max Killing, DT BLCL (T cell dependent cytotoxicity, 51Cr release)",[1],39.9%
same,"% Max Killing, F BLCL (T cell dependent cytotoxicity, 51Cr release)",[1],25.8%
same,"% Max Killing, HONE-1-A2 (T cell dependent cytotoxicity, 51Cr release)",[1],16.8%
same,"% Max Killing, RPMI-6666 (T cell dependent cytotoxicity, 51Cr release)",[1],26.5%
same,"EC50 (µg/mL), DT BLCL (T cell dependent cytotoxicity)",[1],0.025 µg/mL
same,"EC50 (µg/mL), F BLCL (T cell dependent cytotoxicity)",[1],0.033 µg/mL
same,"EC50 (µg/mL), HONE-1-A2 (T cell dependent cytotoxicity)",[1],0.024 µg/mL
same,"EC50 (µg/mL), RPMI-6666 (T cell dependent cytotoxicity)",[1],0.037 µg/mL
B2,number beside the legend entry (name not given; FL2-H histogram),[2],81.5
B3,ratio of specific phage antibody FACS signal to negative control FACS signal,[3],2 to 10
